One molecule from patent US20210284750A1, “Immunoconjugate Synthesis Method” (priority 2017, published 2021) can be followed below.

For assay [1], the system named is Human antigen presenting cells (APCs). The assay is described as follows: APC-tumor co-culture: cytokine secretion in cell-free supernatants (ELISA). The assay is classed as cell-based. The note with it: 18 hours. The source says:
(§1) Isolation of Human Antigen Presenting Cells. Human antigen presenting cells (APCs) were negatively selected from human peripheral blood mononuclear cells obtained from healthy blood donors (Stanford Blood Center) by density gradient centrifugation using a RosetteSep Human Monocyte Enrichment Cocktail (Stem Cell Technologies) containing monoclonal antibodies against CD14, CD16, CD40, CD86, CD123, and HLA-DR. Immature APCs were subsequently purified to >97% purity via negative selection using an EasySep Human Monocyte Enrichment Kit without CD16 depletion containing monoclonal antibodies against CD14, CD16, CD40, CD86, CD123, and HLA-DR.
(§2) Preparation of Tumor Cells. Tumor cells were resuspended in PBS with 0.1% fetal bovine serum (FBS) at 1 to 10×10^6 cells/mL. Cells were subsequently incubated with 2 μM CFSE to yield a final concentration of 1 μM. The reaction was ended after 2 minutes via the addition of 10 mL complete medium with 10% FBS and washed once with complete medium. Cells were either fixed in 2% paraformaldehyde and washed three times with PBS or left unfixed prior to freezing the cells in 10% DMSO, 20% FBS and 70% medium.
(§3) APC-Tumor Co-cultures. […] Cells and cell-free supernatants were analyzed after 18 hours via flow cytometry or ELISA.

Assay [2] shares this test system. The assay is described as follows: APC-tumor co-culture: myeloid activation by flow cytometry. Particulars: 18 hours; for myeloid activation: APC-tumor co-culture. The assay is classed as cell-based.
Source text: as §1, §2, §3
Background: In flow cytometry, cells or beads pass a laser one at a time.

[3] abbreviates: APCs with CFSE-labeled tumor cells, various concentrations, flow cytometry.

B1: CD20 (protein, UniProt P11836 1-297, looked up)
B-lymphocyte antigen CD20: MTTPRNSVNGTFPAEPMKGPIAMQSGPKPLFRRMSSLVGPTQSFFMRESKTLGAVQIMNGLFHIALGGLLMIPAGIYAPICVTVWYPLWGGIMYIISGSLLAATEKNSRKCLVKGKMIMNSLSLFAAISGMILSIMDILNIKISHFLKMESLNFIRAHTPYINIYNCEPANPSEKNSPSTQYCYSIQSLFLGILSVMLIFAFFQELVIAGIVENEWKRTCSRPKSNIVLLSAEEKKEQTIEIKEEVVGLTETSSQPKNEEDIEIIPIQEEEEEETETNFPEPPQDQESSPIENDSSP
In the case of B1, the “cytokine secretion” value in assay [1] is “do not”. Besides, in assay [2], the “myeloid activation” value is given as “does not”. Besides, in assay [2] (listed as unconjugated CD20 antibody), the “myeloid activation” value is “do not”. In assay [2] (setting [3]), the “myeloid activation as indicated by CD14 downregulation” value is listed as “does not”, the “myeloid activation as indicated by CD16 downregulation” value is on record as “does not”, the “myeloid activation as indicated by CD40 upregulation” value is “does not” and the “myeloid activation as indicated by CD86 upregulation” value is “does not”. Besides, in assay [2] (setting [3]), the “myeloid activation as indicated by CD123 upregulation” value is reported as “does not” and the “myeloid activation as indicated by HLA-DR upregulation” value was “does not”.
